From the Immune Epitope Database (IEDB)

Columns and labels:
HLA-A*30:01 = assay: IEDB peptide-MHC binding, purified MHC/competitive/radioactivity; filed as Kd, often an IC50 or EC50 that approximates it; ≥ and ≤ were set here for values at or beyond the usual limits of such assays
HLA-A*30:02 = assay: as above
HLA-A*03:01 = assay: IEDB peptide-MHC binding, purified MHC/direct/fluorescence; filed as Kd, often an IC50 or EC50 that approximates it; ≥ and ≤ were set here for values at or beyond the usual limits of such assays; settings: source organism: Entamoeba histolytica HM-1:IMSS
HLA-A*02:02 = assay: IEDB peptide-MHC binding, purified MHC/competitive/radioactivity; filed as Kd, often an IC50 or EC50 that approximates it; ≥ and ≤ were set here for values at or beyond the usual limits of such assays
HLA-A*02:03 = assay: as above
HLA-A*02:06 = assay: as above
HLA-A*26:01 = assay: as above
HLA-A*01:01 = assay: as above
HLA-A*23:01 = assay: as above
[1] = source organism: Dengue virus 3 Martinique/1243/1999
[2] = source organism: Dengue virus 2 Jamaica/1409/1983
[3] = source organism: Vaccinia virus WR
[4] = source organism: Lymphocytic choriomeningitis virus (strain Armstrong)
[5] = source organism: Dengue virus 1 Brazil/97-11/1997
[6] = source organism: Dengue virus 4 Philippines/H241/1956
[7] = source organism: SARS coronavirus Tor2
[8] = source organism: Dengue virus 2 Peru/IQT2913/1996

| Sequence | Kd (HLA-A*02:02; [3]) | Kd (HLA-A*02:03; [3]) | Kd (HLA-A*02:06; [3]) | also measured |
| --- | --- | --- | --- | --- |
| NAICSAVPVH | – | – | – | Kd (HLA-A*30:01; [1]): 2950 nM |
| AWNSLEVEDY | – | – | – | Kd (HLA-A*30:02; [2]): 613 nM |
| FMFGPTIYY | – | – | – | Kd (HLA-A*03:01): 43 nM |
| KIIAVFDSKL | 24.6 nM | 56.8 nM | 59.4 nM | – |
| SCDDVVFGI | – | – | – | Kd (HLA-A*02:02; [4]): 2150 nM; Kd (HLA-A*02:03; [4]): ≥ 50400 nM; Kd (HLA-A*02:06; [4]): 14500 nM |
| STVSQLAKRF | – | – | – | Kd (HLA-A*26:01; source organism: Dengue virus 1 Nauru/West Pac/1974): 3.59 µM |
| ITDDSDDYEL | 687 nM | 11900 nM | 49.3 nM | – |
| LSRKTFDTEY | – | – | – | Kd (HLA-A*01:01; [5]): 503 nM; Kd (HLA-A*30:02; [5]): 975 nM |
| QVGTYGLNTF | – | – | – | Kd (HLA-A*23:01; [2]): 790 nM |
| YSQVNPLTL | – | – | – | Kd (HLA-A*01:01; [5]): 1010 nM |
| VDYMPVMKRY | – | – | – | Kd (HLA-A*30:02; [6]): 76.4 nM |
| YVLFVKKML | ≥ 31100 nM | 12000 nM | 2540 nM | – |
| AGGLLLAAY | – | – | – | Kd (HLA-A*30:02; [6]): 59.7 nM |
| IMLIIFWFSL | – | – | – | Kd (HLA-A*02:02; [7]): 1540 nM; Kd (HLA-A*02:03; [7]): 14900 nM; Kd (HLA-A*02:06; [7]): 16800 nM |
| KARNTPFNM | – | – | – | Kd (HLA-A*30:01; [8]): 169 nM |
| KTIWEIPQK | – | – | – | Kd (HLA-A*30:01; [3]): 11.8 nM |
| SIKMIYDLNA | 852 nM | 257 nM | 1030 nM | – |
| YVIRHVDGKI | 621 nM | 114 nM | 522 nM | – |
| ITDFVGKTV | – | – | – | Kd (HLA-A*01:01; source organism: Dengue virus 3 Singapore/8120/1995): ≥ 39700 nM |
| FQESFYEDI | 2280 nM | 4420 nM | 185 nM | – |
| EVGTNFGTI | 5760 nM | 1940 nM | 19900 nM | – |

| Sequence | Kd (HLA-A*02:02; [3]) | Kd (HLA-A*02:03; [3]) | Kd (HLA-A*02:06; [3]) | also measured |
| --- | --- | --- | --- | --- |
| SSVNMISRM | – | – | – | Kd (HLA-A*26:01; [2]): 1.34 µM |
| FLNGSCGSV | – | – | – | Kd (HLA-A*02:02; [7]): 1.05 nM; Kd (HLA-A*02:03; [7]): 0.571 nM; Kd (HLA-A*02:06; [7]): 64.5 nM |
| EISNMLSII | – | – | – | Kd (HLA-A*26:01; [1]): 3.37 µM |
| LTTRNGEPHM | – | – | – | Kd (HLA-A*30:01; [2]): 13700 nM |
| TFIRSTMPL | – | – | – | Kd (HLA-A*23:01; [6]): 255 nM |
| YLRGHTESI | 0.206 nM | 0.176 nM | 90.9 nM | – |
| QNYVCKHTY | – | – | – | Kd (HLA-A*30:02; [1]): ≥ 76900 nM |
| TILATLNTLI | 39.5 nM | 29.7 nM | 335 nM | – |
| RAIASMIMY | – | – | – | Kd (HLA-A*30:01; [3]): 71.1 nM |
| MLLTFLTSL | – | – | – | Kd (HLA-A*02:02; [7]): 6.21 nM; Kd (HLA-A*02:03; [7]): 4.84 nM; Kd (HLA-A*02:06; [7]): 3.63 nM |
| LMLKATLLCV | – | – | – | Kd (HLA-A*02:02; [7]): 3.39 nM; Kd (HLA-A*02:03; [7]): 20.9 nM; Kd (HLA-A*02:06; [7]): 63.4 nM |
| KARCNHLTK | – | – | – | Kd (HLA-A*30:01; [3]): 0.214 nM |
| YASLTTIGT | 409 nM | 144 nM | 161 nM | – |
| FLRPVLKAM | 1380 nM | 9.75 nM | 5480 nM | – |
| YLSSVLLAL | – | – | – | Kd (HLA-A*02:02; [7]): 0.144 nM; Kd (HLA-A*02:03; [7]): 0.308 nM; Kd (HLA-A*02:06; [7]): 8.16 nM |
| LRFLAIPPTA | – | – | – | Kd (HLA-A*30:01; [5]): 3130 nM |
| EKMEALQRKY | – | – | – | Kd (HLA-A*26:01; source organism: Dengue virus 2 16681-PDK53): 6.38 µM |
| VLAWLYAAV | – | – | – | Kd (HLA-A*02:02; [7]): 0.0967 nM; Kd (HLA-A*02:03; [7]): 0.311 nM; Kd (HLA-A*02:06; [7]): 8.79 nM |
| PVVYHDDDNT | 9140 nM | ≥ 26800 nM | 1350 nM | – |
| TISGNIYSAL | 9.32 nM | 89.2 nM | 2670 nM | – |
| GMYYPTNDI | 53.1 nM | 8.71 nM | 1680 nM | – |

| Sequence | Kd (HLA-A*02:02; [3]) | Kd (HLA-A*02:03; [3]) | Kd (HLA-A*02:06; [3]) | also measured |
| --- | --- | --- | --- | --- |
| ALTLATGPIT | – | – | – | Kd (HLA-A*30:01; [1]): 159 nM |
| TIFDIVSKCI | 198 nM | 94.4 nM | 701 nM | – |
| RRRTAGMII | – | – | – | Kd (HLA-A*30:01; [8]): 4830 nM |
| AGPVSQHNY | – | – | – | Kd (HLA-A*30:02; [2]): 23.2 nM |
| RSKNTIIIA | – | – | – | Kd (HLA-A*30:01; [3]): 0.163 nM |
| HLRDQSIKI | – | – | – | Kd (HLA-A*30:01; [3]): 15.2 nM |
| TSEIQLTDY | – | – | – | Kd (HLA-A*01:01; [5]): 323 nM |
| QLMCQPILL | – | – | – | Kd (HLA-A*02:02; [7]): 2.99 nM; Kd (HLA-A*02:03; [7]): 11.9 nM; Kd (HLA-A*02:06; [7]): 76.9 nM |
| LCLIPTAMAF | – | – | – | Kd (HLA-A*23:01; [6]): 1080 nM |
| GVYPMSIPAT | – | – | – | Kd (HLA-A*30:01; [5]): 10400 nM |
| TTMRGAKRM | – | – | – | Kd (HLA-A*26:01; [2]): 8.19 µM |
| KLPTWLGAA | 499 nM | 8.02 nM | 9.42 nM | – |
| VTARWLWGFL | – | – | – | Kd (HLA-A*01:01; source organism: Dengue virus 1 Singapore/S275/1990): 8660 nM |
| CSRCLSLFY | – | – | – | Kd (HLA-A*30:01; [3]): 22.1 nM |
| AVYNFATCGI | – | – | – | Kd (HLA-A*02:02; [4]): 25.3 nM; Kd (HLA-A*02:03; [4]): 7.28 nM; Kd (HLA-A*02:06; [4]): 25.2 nM |
| STYPGNTFV | 10.8 nM | 0.192 nM | 0.464 nM | – |
| NVISKIYTLI | 0.985 nM | 32.7 nM | 196 nM | – |
| SVDFVVNGHT | ≥ 70000 nM | ≥ 70400 nM | ≥ 69800 nM | – |
| MAAAKTPVIV | 6010 nM | 156 nM | 3630 nM | – |
